Reference: patent US20250289894A1 (MORPHIC THERAPEUTIC, published 2025)
Like-named read-outs stand apart in the source and are kept apart here.

B1: Ab8 (antibody, V domains shown)
VH: QVPLQQSGPQLVRPGASVKISCKASGYSFTRYWMHWVKQRPGQGLDWIGKIDPSDSETRLNQEFRDKATLTVDKSSSTAYLQLSSPTSEDSAVYYCARGGYFGEGWYFDVWGAGTTVTVSS
VL: DVVMTQIPLSLPVSLGDQASISCRSSQSLVHRNGNTYLHWYLQKPGQSPKLLIYKVSNRFSGVPDRFSGSGSGTDFTLKISRVEAEDLGVYFCSQSTHVPWTFGGGTKLEIK
notes: Mouse anti-α7β1 antibody (hybridoma, α7 knock-out mouse); also called AbS
B2: Ab2 (antibody, V domains shown)
VH: EVQLVESGGGLVKPGGSLRLSCAASGFTFSSYTMNWVRQAPGKGLEWVSSISIVGNYIYYADSLKGRFTISRDNAKNSLYLQMNSLRAEDTAVYYCARRKWEHDAFDIWGQGTMVTVSS
VL: SSELTQDPAVSVALGQTVRITCQGDSLRSYYASWYQQKPGQAPVLVIYGKNNRPSGIPDRFSGSSSGNTASLTITGAQAEDEADFYCTSRDNSGNHVVFGGGTKLTVL
notes: Human anti-α7β1 antibody (hybridoma, human transgenic mouse); Ab28 and Ab29 are full chains with the same CDRs

Assays:
[1] = target: T1, Cynomolgus Monkey α7β1 Ecto Domain (cynomolgus monkey, UniProt A0A2K5UNI0 34-1082; H9FU31 21-728); test: SPR
T1 construct: extracellular domain; Heterodimer

Cynomolgus Monkey Leg α7 = target: T2, Cynomolgus Monkey Leg α7 (cynomolgus monkey, UniProt A0A2K5UNI0 679-1078); test: SPR
T2 construct: domain: Leg α7
T2 sequence: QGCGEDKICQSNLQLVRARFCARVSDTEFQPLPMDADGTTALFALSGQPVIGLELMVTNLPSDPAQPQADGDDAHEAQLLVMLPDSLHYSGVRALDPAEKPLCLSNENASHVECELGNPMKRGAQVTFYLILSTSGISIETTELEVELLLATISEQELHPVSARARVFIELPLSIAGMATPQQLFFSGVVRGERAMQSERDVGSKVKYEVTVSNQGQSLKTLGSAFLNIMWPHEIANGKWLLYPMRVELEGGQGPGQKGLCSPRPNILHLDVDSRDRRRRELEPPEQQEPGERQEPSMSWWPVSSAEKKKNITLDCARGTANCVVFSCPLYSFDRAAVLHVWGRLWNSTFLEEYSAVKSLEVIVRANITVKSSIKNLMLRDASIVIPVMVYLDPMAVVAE

Mouse Leg α7 = target: T3, Mouse Leg α7 (mouse, UniProt Q61738 679-1076, limits assumed); test: SPR
T3 construct: domain: Leg α7
T3 sequence (looked up): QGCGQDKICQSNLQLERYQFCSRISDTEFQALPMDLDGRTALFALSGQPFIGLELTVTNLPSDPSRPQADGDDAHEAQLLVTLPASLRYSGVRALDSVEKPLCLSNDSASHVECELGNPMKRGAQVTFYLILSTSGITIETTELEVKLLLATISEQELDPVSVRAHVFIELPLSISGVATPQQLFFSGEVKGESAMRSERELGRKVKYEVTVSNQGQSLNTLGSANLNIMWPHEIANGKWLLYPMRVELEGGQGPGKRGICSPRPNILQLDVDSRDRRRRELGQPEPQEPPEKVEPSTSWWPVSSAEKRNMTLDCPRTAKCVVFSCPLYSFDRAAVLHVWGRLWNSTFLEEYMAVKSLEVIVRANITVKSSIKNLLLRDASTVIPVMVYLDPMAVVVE

Human Leg α7 = target: T4, Human Leg α7 (human, UniProt Q13683 679-1078); test: SPR
T4 construct: also called human α7 leg; leg domain of human α7
T4 sequence: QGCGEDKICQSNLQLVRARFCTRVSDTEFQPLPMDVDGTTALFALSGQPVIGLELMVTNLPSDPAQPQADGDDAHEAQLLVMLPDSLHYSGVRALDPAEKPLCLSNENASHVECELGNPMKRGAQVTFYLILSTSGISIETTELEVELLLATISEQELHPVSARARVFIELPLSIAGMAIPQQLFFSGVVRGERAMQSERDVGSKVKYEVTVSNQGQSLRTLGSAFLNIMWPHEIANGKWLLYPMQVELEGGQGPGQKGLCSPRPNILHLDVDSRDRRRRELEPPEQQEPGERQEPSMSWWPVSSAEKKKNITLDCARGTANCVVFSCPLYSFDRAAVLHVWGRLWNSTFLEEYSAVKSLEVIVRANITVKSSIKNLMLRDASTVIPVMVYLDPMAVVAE

[2] = target: Mouse α7β1 Ecto Domain (mouse) (UniProt Q61738); test: SPR
[3] = target: Human α7β1 Ecto Domain (human) (UniProt Q13683); test: SPR
[4] = target: Mouse α7β1 Ecto Domain (mouse) (UniProt Q61738); test: cell-based or functional assay
Human α7β1 (human) [5] = target: Human α7β1 (human) (UniProt Q13683); test: cell-based or functional assay
[6] = target: Human α7β1 Ecto Domain (human) (UniProt Q13683); test: cell-based or functional assay
Mouse α7β1 [7] = target: T5, Mouse α7β1 (mouse, UniProt Q61738 34-1179; P09055 21-798); test: cell binding, mouse α7β1 cells, with Mn-BOP
T5 construct: whole, on cells; also called mouse α7β1 cells

Mouse α7β1 [8] = target: T5, Mouse α7β1; test: cell-based or functional assay
Cynomolgus Monkey α7β1 = Cynomolgus Monkey α7β1 (cynomolgus monkey, UniProt A0A2K5UNI0 34-1181; H9FU31 21-798); test: cell-based or functional assay
Human α7β1 (human) [9] = target: Human α7β1 (human) (UniProt Q13683); test: cell binding, DMD myoblast cells, with Mn-BOP
human α7 calf-1 protein = target: T6, human α7 calf-1 protein (human, UniProt Q13683 688-848); test: binding ELISA, panel 'Human a7 Calf1 vs Ab2'
T6 construct: also called Calf-1 domain
T6 sequence: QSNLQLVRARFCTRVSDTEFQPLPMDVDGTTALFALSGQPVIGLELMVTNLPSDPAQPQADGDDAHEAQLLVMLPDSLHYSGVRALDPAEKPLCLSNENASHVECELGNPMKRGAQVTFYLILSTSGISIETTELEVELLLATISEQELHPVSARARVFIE

Human α7β1 (human) [10] = target: Human α7β1 (human) (UniProt Q13683); test: cell-based or functional assay; remark: listed apart in the source

T5 sequence (Q61738 34-1179, chain 1 of 2): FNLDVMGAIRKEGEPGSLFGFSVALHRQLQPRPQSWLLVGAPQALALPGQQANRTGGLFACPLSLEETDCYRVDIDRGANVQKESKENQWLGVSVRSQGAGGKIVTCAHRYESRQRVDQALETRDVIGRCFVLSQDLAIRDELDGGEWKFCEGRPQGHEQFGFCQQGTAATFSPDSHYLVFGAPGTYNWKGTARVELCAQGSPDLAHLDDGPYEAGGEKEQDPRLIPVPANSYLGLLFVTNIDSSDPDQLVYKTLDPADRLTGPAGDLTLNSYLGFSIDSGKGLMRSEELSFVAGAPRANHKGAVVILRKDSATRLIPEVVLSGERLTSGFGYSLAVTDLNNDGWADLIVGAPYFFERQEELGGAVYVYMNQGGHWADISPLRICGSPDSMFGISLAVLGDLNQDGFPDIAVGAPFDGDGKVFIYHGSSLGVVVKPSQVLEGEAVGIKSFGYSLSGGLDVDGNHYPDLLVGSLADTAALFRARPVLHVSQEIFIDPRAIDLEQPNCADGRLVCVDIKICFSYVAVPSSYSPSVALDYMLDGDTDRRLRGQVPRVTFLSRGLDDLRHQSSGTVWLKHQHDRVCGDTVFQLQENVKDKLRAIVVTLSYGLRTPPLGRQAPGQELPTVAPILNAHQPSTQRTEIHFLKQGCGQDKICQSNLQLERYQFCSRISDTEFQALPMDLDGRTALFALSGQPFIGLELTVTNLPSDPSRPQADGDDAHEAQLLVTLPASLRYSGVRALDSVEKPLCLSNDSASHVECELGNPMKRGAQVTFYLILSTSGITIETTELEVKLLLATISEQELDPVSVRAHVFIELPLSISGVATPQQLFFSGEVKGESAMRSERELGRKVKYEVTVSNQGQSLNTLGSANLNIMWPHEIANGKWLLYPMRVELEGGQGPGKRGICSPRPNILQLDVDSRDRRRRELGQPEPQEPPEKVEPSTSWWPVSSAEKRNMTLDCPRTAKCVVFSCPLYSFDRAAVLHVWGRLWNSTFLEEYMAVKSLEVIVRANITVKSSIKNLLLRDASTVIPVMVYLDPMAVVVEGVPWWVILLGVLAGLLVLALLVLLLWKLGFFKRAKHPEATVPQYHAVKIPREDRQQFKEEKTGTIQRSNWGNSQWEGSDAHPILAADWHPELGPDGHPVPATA
T5 sequence (P09055 21-798, chain 2 of 2): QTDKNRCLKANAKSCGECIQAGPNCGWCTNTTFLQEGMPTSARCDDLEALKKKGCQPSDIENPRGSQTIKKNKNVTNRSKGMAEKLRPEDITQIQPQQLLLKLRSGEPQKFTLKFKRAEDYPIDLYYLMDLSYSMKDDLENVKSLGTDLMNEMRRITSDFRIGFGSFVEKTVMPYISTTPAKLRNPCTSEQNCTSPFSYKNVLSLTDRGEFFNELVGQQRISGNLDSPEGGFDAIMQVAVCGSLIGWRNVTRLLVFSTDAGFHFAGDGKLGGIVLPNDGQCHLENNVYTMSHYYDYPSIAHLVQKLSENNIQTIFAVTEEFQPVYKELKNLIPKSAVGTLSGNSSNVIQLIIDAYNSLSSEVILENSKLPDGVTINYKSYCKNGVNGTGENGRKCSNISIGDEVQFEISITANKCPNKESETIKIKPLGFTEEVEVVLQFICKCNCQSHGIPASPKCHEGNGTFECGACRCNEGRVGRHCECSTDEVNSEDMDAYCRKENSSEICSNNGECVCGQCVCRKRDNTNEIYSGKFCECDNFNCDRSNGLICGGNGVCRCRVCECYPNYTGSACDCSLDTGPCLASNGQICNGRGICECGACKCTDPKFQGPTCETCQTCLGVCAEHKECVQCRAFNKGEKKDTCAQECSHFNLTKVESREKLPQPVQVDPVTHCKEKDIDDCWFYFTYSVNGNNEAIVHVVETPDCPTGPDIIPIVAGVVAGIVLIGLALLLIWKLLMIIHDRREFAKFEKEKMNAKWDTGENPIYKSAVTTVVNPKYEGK

Row | Binder | Kd [1] [nM] | Kd (Cynomolgus Monkey Leg α7) [nM] | Kd (Human Leg α7) [nM] | Kd [3] [nM] | EC50 (nM), ECIS, DMD-1 myoblast cells (Human α7β1 (human) [5]) [nM] | EC50 (nM), ECIS, DMD-2 myoblast cells (Human α7β1 (human) [5]) [nM] | EC50 (nM), ECIS, Non-DMD myoblast cells (Human α7β1 (human) [5]) [nM] | Emax (% of RefAb1), ECIS, DMD-1 myoblast cells (Human α7β1 (human) [5]) | Emax (% of RefAb1), ECIS, DMD-2 myoblast cells (Human α7β1 (human) [5]) | Emax (% of RefAb1), ECIS, Non-DMD myoblast cells (Human α7β1 (human) [5]) | Emax (%*), Cell Adhesion Assay (Human α7β1 (human) [5]) [%] | Emax (%*), Solid Phase Assay [6] [%] | EC50 (nM), Cell Adhesion Assay (Cynomolgus Monkey α7β1) [nM] | Emax (%*), Cell Adhesion Assay (Cynomolgus Monkey α7β1) [%] | EC50 (Human α7β1 (human) [9]) [nM] | other results
1 | B1 | 225 | 32.3 | 25 | 184 | 10 | 32 | 41.6 | 264 % of RefAb1 | 130 % of RefAb1 | 100 % of RefAb1 | 117 | 89 | 1.69 | 102 | 32.6 | Kd (Mouse Leg α7): 1.42 nM; Kd [2]: 5.46 nM; EC50 (nM), Solid Phase Assay [4]: 1.55 nM; Emax (%*), Solid Phase Assay [4]: 148%; EC50 (nM), Cell Adhesion Assay (K562 cells expressing α7β1 on laminin-221) (Human α7β1 (human) [5]): 3.94 nM; EC50 (nM), Solid Phase Assay (6xHis α7β1 ectodomain on coated laminin-221) [6]: 0.77 nM; EC50 (Mouse α7β1 [7]): 22.6 nM; EC50 (nM), Cell Adhesion Assay (Mouse α7β1 [8]): 3.82 nM; Emax (%*), Cell Adhesion Assay (Mouse α7β1 [8]): 144%
2 | B2 | 23 | 19.4 | 1.58 | 5.69 | 14.8 | 41.1 | 23.3 | 289 % of RefAb1 | 240 % of RefAb1 | 124 % of RefAb1 | 122 | 97 | 3.31 | 115 | 41.1 | binding result (human α7 calf-1 protein): no binding; binding result (Mouse Leg α7): no binding; EC50 (nM), Cell Adhesion Assay (Human α7β1 (human) [5]): 5.1 nM; EC50 (nM), a7b1 activation assay (Human α7β1 (human) [5]): 2.91 nM; EC50 (ug/mL), a7b1 activation assay (Human α7β1 (human) [5]): 0.44 µg/mL; Emax (% TS2/16), a7b1 activation assay (Human α7β1 (human) [5]): 117 % TS2/16; Emax (F.C.), a7b1 activation assay (Human α7β1 (human) [5]): 2.75 F.C.; EC50 (nM), Solid Phase Assay [6]: 0.4 nM; EC50 (nm), a7b1 activation assay (Human α7β1 (human) [10]): 2.8 nM; EC50 (ug/mL), a7b1 activation assay (Human α7β1 (human) [10]): 0.42 µg/mL; Emax (% TS2/16), a7b1 activation assay (Human α7β1 (human) [10]): 100 % TS2/16; Emax (F.C.), a7b1 activation assay (Human α7β1 (human) [10]): 2.09 F.C.
